Measurements published in publication PMC6909241.

Molecular target: NCp7 (nucleocapsid protein) (HIV-1, UniProt P12493 378-432)
Experiment: EMSA; 7.5-300 nM NCp7, 15 nM RNA folded in 50 mM KCl; free G4 decreases from 75 nM, near complete disappearance and faint complex at 300 nM; EMSA: RNA annealed in 10 mM Li cacodylate pH 7.4, 50 mM KCl; 15 nM RNA in 8% glycerol, 30 mM Tris-HCl, 15 mM MgCl2, 50 uM ZnCl2, 37 C; 12% native gel at 4 C

## GGGAGGCGUGGCCUGGGCGGGACUGGGGAGUGG (structured_RNA) [RNA U3-III+IV G4]
  binding result: binds
